B1: SETD8 (parent)
chain: KKAQGKTQQNRKLTDFYPVRRSSR
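Further: lentivirally expressed fusions sorted by FACS into six bins by GFP to DsRed ratio, PSI derived from sequencing read proportions per bin multiplied by bin number.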

Variants of B1 are the subject of the series. In words: protein stability index of a GFP-peptide fusion (GPS, HEK-293T) (PSI 1-6); higher = more stable. The settings on record: c terminus: a fixed tail appended.
Take KKAQGHTQQNRKLTDFYPVRRSSR: the protein stability index stood at 1.57.
To KKAQGCTQQNRKLTDFYPVRRSSR belongs 3.03.
On to KKAQGSTQQNRKLTDFYPVRRSSR, for which the protein stability index was 1.73.
Take KKAQGNTQQNRKLTDFYPVRRSSR: the protein stability index stood at 2.82.
To KKAQGRTQQNRKLTDFYPVRRSSR belongs 3.1.
KKAQGWTQQNRKLTDFYPVRRSSR: the protein stability index was determined as 2.33.
Turning to KKAQGITQQNRKLTDFYPVRRSSR, the protein stability index turned out to be 2.09.
Next, KKAQGFTQQNRKLTDFYPVRRSSR: 2.16.
Next, KKAQGGTQQNRKLTDFYPVRRSSR: 3.09.
To KKAQGMTQQNRKLTDFYPVRRSSR belongs 1.62.
Regarding KKAQGTTQQNRKLTDFYPVRRSSR, the protein stability index was determined as 3.58.
To KKAQGKTQQNRKLTGFYPVRRSSR belongs 3.23; to KKAQGKTQQNRKLTPFYPVRRSSR, 3.1; to KKAQGKTQQNRKLTLFYPVRRSSR, 2.87.
To KKAQGKTQQNRKLTSFYPVRRSSR belongs 3.12; to KKAQGKTQQNRKLTMFYPVRRSSR, 2.43; to KKAQGKTQQNRKLTEFYPVRRSSR, 4.29.
To KKAQGKTQQNRKLTWFYPVRRSSR belongs 4.09; to KKAQGKTQQNRKLTHFYPVRRSSR, 2.42; to KKAQGKTQQNRKLTIFYPVRRSSR, 3.18.
In the case of KKAQGKTQQNRKLTFFYPVRRSSR, the protein stability index was found to be 2.74.
Regarding KKAQGKTQQNRKLTVFYPVRRSSR, the protein stability index is 2.72.
To KKAQGKTQQNRKLTYFYPVRRSSR belongs 2.77; to KKAQGKTQQNRKLTNFYPVRRSSR, 2.92.
Next, KKAQGKTQQNRKLTQFYPVRRSSR: 2.36; KKAQGKTQQNRKLTCFYPVRRSSR: 2.52.
Next, KKAQGKTQQNRKLTRFYPVRRSSR: 3.62; KKAQGKTQQNRKLTTFYPVRRSSR: 3.5.
As for KKAQGKTQQNRKLTAFYPVRRSSR, the protein stability index was 2.85.
To KKAQGKTQQNRKLQDFYPVRRSSR belongs 3.33; to KKAQGKTQQNRKLLDFYPVRRSSR, 3.72.
To KKAQGKTQQNRKLMDFYPVRRSSR belongs 1.79.
To KKAQGKTQQNRKLGDFYPVRRSSR belongs 2.68; to KKAQGKTQQNRKLYDFYPVRRSSR, 2.65.
In the case of KKAQGKTQQNRKLEDFYPVRRSSR, the protein stability index was 4.32.
For the variant KKAQGKTQQNRKLDDFYPVRRSSR, the protein stability index was found to be 4.21.
To KKAQGKTQQNRKLPDFYPVRRSSR belongs 2.4; to KKAQGKTQQNRKLHDFYPVRRSSR, 3.1.
Next, KKAQGKTQQNRKLNDFYPVRRSSR: 3.49; KKAQGKTQQNRKLRDFYPVRRSSR: 3.11; KKAQGKTQQNRKLSDFYPVRRSSR: 2.72.
To KKAQGKTQQNRKLVDFYPVRRSSR belongs 3.67; to KKAQGKTQQNRKLADFYPVRRSSR, 3.99; to KKAQGKTQQNRKLIDFYPVRRSSR, 2.63.
As for KKAQGKTQQNRKLWDFYPVRRSSR, the protein stability index stood at 3.4.
Next, KKAQGKTQQNGKLTDFYPVRRSSR: 1.5; KKAQGKTQQNPKLTDFYPVRRSSR: 2.61; KKAQGKTQQNYKLTDFYPVRRSSR: 2.94.
To KKAQGKTQQNQKLTDFYPVRRSSR belongs 2.71.
To KKAQGKTQQNTKLTDFYPVRRSSR belongs 2.19; to KKAQGKTQQNVKLTDFYPVRRSSR, 1.86.
As for KKAQGKTQQNHKLTDFYPVRRSSR, the protein stability index was 3.68.
For the variant KKAQGKTQQNIKLTDFYPVRRSSR, the protein stability index was 2.45.
Turning to KKAQGKTQQNSKLTDFYPVRRSSR, the protein stability index turned out to be 2.85.
As for KKAQGKTQQNWKLTDFYPVRRSSR, the protein stability index came to 2.76.
To KKAQGKTQQNLKLTDFYPVRRSSR belongs 2.43; to KKAQGKTQQNEKLTDFYPVRRSSR, 2.15.
Next, KKAQGKTQQNNKLTDFYPVRRSSR: 2.86.
Regarding KKAQGKTQQNDKLTDFYPVRRSSR, the protein stability index turned out to be 3.45.
Next, KKAQGKTQQNAKLTDFYPVRRSSR: 1.6; KKAQGKTQQNFKLTDFYPVRRSSR: 2.91; KKAQGKTQQNRPLTDFYPVRRSSR: 2.97.
To KKAQGKTQQNRELTDFYPVRRSSR belongs 3.35; to KKAQGKTQQNRMLTDFYPVRRSSR, 2.55; to KKAQGKTQQNRGLTDFYPVRRSSR, 2.76.
To KKAQGKTQQNRNLTDFYPVRRSSR belongs 2.81; to KKAQGKTQQNRSLTDFYPVRRSSR, 2.64.
Regarding KKAQGKTQQNRFLTDFYPVRRSSR, the protein stability index was determined as 1.93.
For KKAQGKTQQNRLLTDFYPVRRSSR, the protein stability index was found to be 3.41.
Take KKAQGKTQQNRYLTDFYPVRRSSR: the protein stability index was found to be 3.
To KKAQGKTQQNRVLTDFYPVRRSSR belongs 2.32; to KKAQGKTQQNRDLTDFYPVRRSSR, 2.98; to KKAQGKTQQNRTLTDFYPVRRSSR, 2.4.
Turning to KKAQGKTQQNRHLTDFYPVRRSSR, the protein stability index was found to be 1.53.
To KKAQGKTQQNRRLTDFYPVRRSSR belongs 1.86.
Next, KKAQGKTQYNRKLTDFYPVRRSSR: 2.92.
As for KKAQGKTQDNRKLTDFYPVRRSSR, the protein stability index is 2.83.
To KKAQGKTQCNRKLTDFYPVRRSSR belongs 3.93; to KKAQGKTQHNRKLTDFYPVRRSSR, 4.29; to KKAQGKTQGNRKLTDFYPVRRSSR, 1.89.
Next, KKAQGKTQSNRKLTDFYPVRRSSR: 2.36.
To KKAQGKTQLNRKLTDFYPVRRSSR belongs 2.65.
On to KKAQGKTQMNRKLTDFYPVRRSSR, for which the protein stability index was 2.25.
With KKAQGKTQANRKLTDFYPVRRSSR, the protein stability index was 3.26.
To KKAQGKTQPNRKLTDFYPVRRSSR belongs 1.78.
Take KKAQGKTQRNRKLTDFYPVRRSSR: the protein stability index was found to be 2.67.
To KKAQGKTQKNRKLTDFYPVRRSSR belongs 3.66; to KKAQGKTQENRKLTDFYPVRRSSR, 3.12.
To KKAQNKTQQNRKLTDFYPVRRSSR belongs 2.53.
Next, KKAQRKTQQNRKLTDFYPVRRSSR: 1.44; KKAQVKTQQNRKLTDFYPVRRSSR: 2.65.
As for KKAQSKTQQNRKLTDFYPVRRSSR, the protein stability index was 2.62.
To KKAQLKTQQNRKLTDFYPVRRSSR belongs 2.77; to KKAQYKTQQNRKLTDFYPVRRSSR, 2.92.

Values taken from the supplement of paper PMC10567573.
